Measured values reported in the supplement of paper PMC12764529.
± gives the half width of the 95% confidence interval.

Assays:
[1] = folding stability dG unfold from trypsin proteolysis; higher = more stable
Summary of the method: (§1)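 Digests were run with trypsin and chymotrypsin at 11 concentrations in threefold dilutions, plus a no-protease condition, on designed mini-proteins in a PA-tagged cDNA display construct. The mini-proteins were under 80 residues, had no cysteine, and were kept only when AlphaFold2 dimer inter-PAE was above 15. After sequencing, Bayesian fitting of the counts gave K50, from which unfolding free energy was derived against a sequence-predicted unfolded-state K50 and a shared folded-state K50, per protease or combined.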

[2] = folding stability dG unfold from chymotrypsin proteolysis; higher = more stable
Summary of the method: as §1

[3] = folding stability dG unfold (combined trypsin and chymotrypsin); higher = more stable
Summary of the method: as §1

Sequence	folding stability dG unfold [1]	folding stability dG unfold [2]	folding stability dG unfold [3]
SAMIIIRVKSKEELEEAIRRLAEELGIEDATLEQIREALLRAGAKIVSIERDPEREDYVLIVIELPPEPSAG [r14_678_TrROS_Hall]	4.01 ± 0.1 kcal/mol	4.1 ± 0.084 kcal/mol	4.05 ± 0.071 kcal/mol
SAGMMPLSHPEAREKAIEFAKKGYLVYVIEFENGESQVIVLESEEEIEELIKELPKPIKKIYVIPPLPESAG [r5_481_TrMRF]	2.11 ± 0.054 kcal/mol	3.054 ± 0.017 kcal/mol	2.79 ± 0.089 kcal/mol
SAGGSAGGSAGGKVGPGTTVTIVEVEVVGSKINPLGLVTTDFVVKKVEVVEVEKGADLKSAGGSAGGSAGGS [r10_826_JUSTAS]	0.487 ± 0.041 kcal/mol	-0.775 ± 0.41 kcal/mol	0.0651 ± 0.12 kcal/mol
SAGAKIVSVEKVNGEKKITIKVKKEGDEIVIVFPKKNAKIEKKKNGTIEITIKEGETVIIVLKVKKKKSAGG [r19_227_TrROS_Hall]	1.82 ± 0.051 kcal/mol	3.29 ± 0.082 kcal/mol	2.99 ± 0.22 kcal/mol
SAGGSAVPAGTTFELRYPEDEGSLTLTYDPSTNTVTITDGDKTTTYSSTSLEEVLKELGAELASRLSAGGSA [r15_500_JUSTAS]	0.998 ± 0.041 kcal/mol	1.35 ± 0.094 kcal/mol	1.22 ± 0.09 kcal/mol
SAGGSAGGSAGDPGQELMFMWIWPWPNPDGQPWVRIFMWSVRVDDGKIKEIEPTTMWIPLSAGGSAGGSAGG [r11_35_TrROS]	3.08 ± 0.17 kcal/mol	3.774 ± 0.032 kcal/mol	3.55 ± 0.26 kcal/mol
SKTIMIPANMPIDFIRKIARNAAKNGPPVKITIMIPDNPKIKEWLEEAGFPVEIERNKENNMQMITIEVPSA [r9_759_TrROS]	1.8 ± 0.029 kcal/mol	1.95 ± 0.028 kcal/mol	1.91 ± 0.07 kcal/mol
SAGGSAGGSKKPIDIKIEDVDHRRNPNGQPYMKIRIEIPGKPLLSYTFPPGASVEDFLKNILSSAGGSAGGS [r20_115_TrROS]	1.1 ± 0.033 kcal/mol	0.96 ± 0.1 kcal/mol	1.09 ± 0.057 kcal/mol
SAGGSAGGSSELKVVELTTEPGKYLVVTLPDGTVVVLPPGAPLPLGDGEPATVEVVPEEELRSSAGGSAGGS [r12_39_JUSTAS]	0.413 ± 0.041 kcal/mol	0.85 ± 0.022 kcal/mol	0.705 ± 0.046 kcal/mol
SAGGSAGGSAGGPPKWVIFIMIEIRPVTVEVYDPKNGEPLMEKPVWVIKIKIFLFKPGDFSAGGSAGGSAGG [r7_573_TrROS]	3.07 ± 0.081 kcal/mol	4.82 ± 0.13 kcal/mol	4.54 ± 0.13 kcal/mol
SAGGSAGGSGKKRKVEIPIFFSGPPEVADNLAKTLAQELGLPPEDVDIEIKVIPIMPPEQMAESAGGSAGGS [r12_1066_TrROS]	0.477 ± 0.054 kcal/mol	0.818 ± 0.046 kcal/mol	0.721 ± 0.076 kcal/mol
SAGGMTLEERAEALAAERGWTVTSIELVEEKPGEVKFRVTFRLPDGSLETVEITVKRPPPVPPDNLLSAGGS [r8_309_JUSTAS]	3.73 ± 0.11 kcal/mol	3.726 ± 0.025 kcal/mol	3.74 ± 0.057 kcal/mol
SAGGGMPTSIVLPLTVSPENVEEAIAALKAQLEAQGYTLLEVNPVKDGNTWKLRAVFRAPDGTLVTDESAGG [r13_421_JUSTAS]	3.11 ± 0.079 kcal/mol	3.313 ± 0.017 kcal/mol	3.26 ± 0.059 kcal/mol
SAGGSAGGSAGGVIKTFTSPDNKKYTVTVNKDGSVTVETFDPETGKKSISTVSAAEASLSAGGSAGGSAGGS [r10_838_JUSTAS]	1.32 ± 0.029 kcal/mol	0.828 ± 0.066 kcal/mol	1.18 ± 0.063 kcal/mol
SAGGMPKVPVTYTVTFTLKPDGSTLTVTETFPVPEPGKPVTKEEIKQRLLDKLPPSYTITSITITRASAGGS [r16_407_JUSTAS]	1.86 ± 0.03 kcal/mol	2.21 ± 0.026 kcal/mol	2.13 ± 0.051 kcal/mol
SAGGSAGGMVEEIIEEFKKKGYNPEVEVRKTSPETTVVTLKLPDKEVIVEVKPLTPEELEEILRSAGGSAGG [r6_786_JUSTAS]	0.371 ± 0.052 kcal/mol	1.05 ± 0.089 kcal/mol	0.824 ± 0.15 kcal/mol
SAGGSSELEEAIEKARAEPGVLVERTVKLPDGRELKVEVDPKTGIVTLTETLPDGSTTTKEETYEPSAGGSA [r2_263_JUSTAS]	0.512 ± 0.088 kcal/mol	1.26 ± 0.085 kcal/mol	1.11 ± 0.13 kcal/mol
SMPEVETVTLTLTLVDEETGEEVTIEITATRVDGYLVLTMKVEVTVNGKKYTIEMTIVVKPGEEITLTLESA [r9_1015_TrROS_Hall]	3.99 ± 0.33 kcal/mol	5.85 ± 0.37 kcal/mol	> 6 kcal/mol
SAGGGMAPDTPVTVRIEITLPDGTRRVLDIPGRAGDPALLEAIAAELREEGYEVREIRPVEGRIVVASAGGS [r8_497_JUSTAS]	1.96 ± 0.028 kcal/mol	2.81 ± 0.08 kcal/mol	2.53 ± 0.081 kcal/mol
SMKVEKLEDGTYIIVNEDGSITEIKVYPDKVEVKTYPVLYKMPDGRWFETKEEAEKFEEETGVPILEEDLSA [r9_660_TrMRF]	0.787 ± 0.11 kcal/mol	0.887 ± 0.27 kcal/mol	0.759 ± 0.23 kcal/mol
SAGGSAERVLIEAESLEEAKAALEELGVTRVEEREVDGKRYLILVDLDDPEKIEVFSREELEKLLKSAGGSA [r15_11_TrROS_Hall]	0.935 ± 0.034 kcal/mol	1.78 ± 0.093 kcal/mol	1.55 ± 0.083 kcal/mol
